Substitutions are numbered along the chain they refer to.
B1: rHCII(Leu444 →Arg): modified heparin cofactor II: leucine at position 444 replaced by arginine in the 480 amino acid sequence; expressed in E. coli (protein, UniProt P05546 20-499, looked up, variant L444R)
Heparin cofactor 2: GSKGPLDQLEKGGETAQSADPQWEQLNNKNLSMPLLPADFHKENTVTNDWIPEGEEDDDYLDLEKIFSEDDDYIDIVDSLSVSPTDSDVSAGNILQLFHGKSRIQRLNILNAKFAFNLYRVLKDQVNTFDNIFIAPVGISTAMGMISLGLKGETHEQVHSILHFKDFVNASSKYEITTIHNLFRKLTHRLFRRNFGYTLRSVNDLYIQKQFPILLDFKTKVREYYFAEAQIADFSDPAFISKTNNHIMKLTKGLIKDALENIDPATQMMILNCIYFKGSWVNKFPVEMTHNHNFRLNEREVVKVSMMQTKGNFLAANDQELDCDILQLEYVGGISMLIVVPHKMSGMKTLEAQLTPRVVERWQKSMTNRTREVLLPKFKLEKNYNLVESLKLMGIRMLFDKNGNMAGISDQRIAIDLFKHQGTITVNEEGTQATTVTTVGFMPRSTQVRFTVDRPFLFLIYEHRTSCLLFMGRVANPSRS
modifications: expressed in E. coli
B2: native rHCII: recombinant native heparin cofactor II expressed in E. coli; amino acid sequence identical to HCII purified from human plasma (protein, UniProt P05546 20-499, looked up)
Heparin cofactor 2: B1 Heparin cofactor 2 with R444L
B3: HCII: heparin cofactor II, a 65,600 dalton plasma glycoprotein, serpin that inhibits thrombin (protein, UniProt P05546 20-499, looked up)
Heparin cofactor 2: B1 Heparin cofactor 2 with R444L

Experiments:
[1] = system: chymotrypsin; experiment: Inhibition of chymotrypsin by rHCII (chromogenic substrate); assay type: biochemical, human; conditions: for Second-order rate constant (k2) for inhibition of chymotrypsin: No GAG, chymotrypsin 21 nM; for Inhibition of chymotrypsin (in words): absence of a glycosaminoglycan
Description: (§1) Materials--Chromogenic substrates were purchased from the following sources: tosyl-Gly-Pro-Arg-p-nitroanilide (Chromozym TH), Boehringer Mannheim; N-succinyl-Ala-Ala-Pro-Phe-p-nitroanilde, Sigma; methoxycarbonyl cyclohexylglycyl-Gly-Arg-p-nitroanilde (Spectrozyme FXa), American Diagnostica; and Pro-Phe-Arg-p-nitroanilide (S-2302), KabiVitrum. Thrombin and HCII derived from human plasma were prepared and assayed by conventional procedures as previously described by Blinder et al., J. Biol. Chem. 264, 5128-5133 (1989). Human coagulation factor Xa was provided by Dr. George Broze, Jr., Washington University, St. Louis, Mo. Human chymotrypsin and plasma kallikrein were purchased from Sigma. Affinity purified rabbit anti-HCII antibodies were prepared and labeled with Na[^125 I] by conventional procedure as described previously by Blinder et al., Biochemistry 27, 752-759 (1988). Bovine lung heparin and porcine skin dermatan sulfate were purchased from Sigma; the dermatan sulfate was treated with nitrous acid to remove contaminating heparin prior to use [Teien et al., Thromb. Res. 8, 859-867 (1976)]. Heparin-Sepharose was prepared by commonly known procedure as described previously by Tollefsen et al., J. Biol. Chem. 257, 2162-2169 (1982).
(§2) Inhibition of proteases by rHCII--Protease inhibition by rHCII was determined by incubating 90 μl of the partially purified rHCII (or the corresponding heparin-Sepharose fractions of a control lysate from cells transformed with pMON-5840) with 5 μl of the protease and 5 μl of either glycosaminoglycan or water in a disposable polystyrene cuvette at room temperature. Final concentrations of the proteases were as follows: thrombin, 15 nM; chymotrypsin, 21 nM; factor Xa, 16 nM; and kallikrein, 10 nM. After a specified period of time from 5 seconds (s) to 150 min, 300-500 μl of the appropriate chromogenic substrate was added, and the absorbance at 405 nm was recorded continuously for 100 s. The rate of change of absorbance was proportional to the concentration of active protease remaining in the incubation. The amounts added and concentrations of each substrate were as follows: Chromozym TH (thrombin), 500 μl, 0.1 mM; N-succinyl-Ala-Ala-Pro-Phe-p-nitroanilde (chymovtrypsin), 300 μl, 0.5 mM; Spectrozyme FXa (factor Xa), 400 μl, 0.125 mM; and S-2302 (kallikrein), 300 μl, 0.4 mM.
(§3) Protease inhibition by rHCII in the absence of a glycosaminoglycan--The time courses of inhibition of thrombin, factor Xa, kallikrein, and chymotrypsin by […] rHCII(Leu444 →Arg) in the absence of a glycosaminoglycan are indicated in FIG. 3. The incubations were performed under pseudo-first-order conditions, such that the initial concentration of rHCII was greater than the concentration of protease. The pseudo-first-order rate constants (k1) for protease inhibition were determined by fitting the data to the following equation: k1 t=ln([P]0 /[P]t), in which [P]0 =initial protease activity and [P]t =protease activity at time=t. The second-order rate constants (k2) were then calculated by dividing k1 by the initial rHCII concentration. It was observed that rHCII(Leu444 →Arg) inhibits thrombin almost 100 times more rapidly than native rHCII in the absence of a glycosaminoglycan. Furthermore, rHCII(Leu444 →Arg) inhibits factor Xa and kallikrein, while inhibition of these proteases by native rHCII is undetectable.

[2] = system: thrombin; experiment: Inhibition of thrombin by rHCII (chromogenic substrate Chromozym TH); assay type: biochemical, human; conditions: for Second-order rate constant (k2) for inhibition of thrombin: No GAG, thrombin 15 nM, room temperature; for Increase in the rate constant for thrombin inhibition produced by dermatan sulfate: dermatan sulfate vs no GAG; for Increase in the rate constant for thrombin inhibition produced by heparin: heparin vs no GAG; for Maximum rate constant of thrombin inhibition relative to native HCII: in the presence of dermatan sulfate
Description: as §1, §2, §3
Inhibition of thrombin by rHCII in the presence of dermatan sulfate or heparin--The time course of inhibition of thrombin was determined in the presence of various concentrations of dermatan sulfate or heparin.

[3] = system: factor Xa; experiment: Inhibition of factor Xa by rHCII (Spectrozyme FXa); assay type: biochemical, human; conditions: for Second-order rate constant (k2) for inhibition of factor Xa: No GAG, factor Xa 16 nM; for Inhibition of factor Xa (in words): absence of a glycosaminoglycan
Description: as §1, §2, §3

[4] = system: plasma kallikrein; experiment: Inhibition of kallikrein by rHCII (S-2302); assay type: biochemical, human; conditions: for Second-order rate constant (k2) for inhibition of kallikrein: No GAG, kallikrein 10 nM; for Inhibition of kallikrein (in words): absence of a glycosaminoglycan
Description: as §1, §2, §3

[5] = system: thrombin; conditions: literature; cited from earlier work

Molecule | Second-order rate constant (k2) for inhibition of chymotrypsin [1] [M⁻¹ s⁻¹] | Second-order rate constant (k2) for inhibition of thrombin [2] [M⁻¹ s⁻¹] | Increase in the rate constant for thrombin inhibition produced by dermatan sulfate [2] | Increase in the rate constant for thrombin inhibition produced by heparin [2] | Second-order rate constant (k2) for inhibition of factor Xa [3] [M⁻¹ s⁻¹] | Inhibition of factor Xa (in words) [3] | Second-order rate constant (k2) for inhibition of kallikrein [4] [M⁻¹ s⁻¹] | Inhibition of kallikrein (in words) [4] | also measured
B1 | < 170 | 103000 | much smaller effect | minimal effect | 733 | inhibits | 2170 | inhibits | Inhibition of chymotrypsin (in words) [1]: does not inhibit chymotrypsin at a detectable rate; Inhibition of chymotrypsin (in words) ([1]; listed as HCII(Leu444 →Arg)): more slowly; Second-order rate constant (k2) for inhibition of thrombin ([2]; listed as HCII(Leu444 →Arg)): 103000 M⁻¹ s⁻¹; Rate of thrombin inhibition relative to native HCII ([2]; absence of a glycosaminoglycan): ~100 fold; Maximum rate constant of thrombin inhibition relative to native HCII [2]: about twice as fast; Maximum rate constant of thrombin inhibition relative to native HCII ([2]; listed as HCII(Leu444 →Arg)): 2 fold; Inhibition of factor Xa (in words) ([3]; listed as HCII(Leu444 →Arg)): inhibited more rapidly; Effect of dermatan sulfate on rate of inhibition of factor Xa ([3]; dermatan sulfate): nor does it increase; Effect of heparin on inhibition of factor Xa ([3]; heparin 100 μg/ml): appears to protect; Inhibition of kallikrein (in words) ([4]; listed as HCII(Leu444 →Arg)): inhibited more rapidly; Effect of heparin on inhibition of kallikrein ([4]; heparin 100 μg/ml): appears to protect
B2 | 3670 | 1050 | ~3500 fold | about 40 fold | < 17 | undetectable | < 50 | undetectable | Effect of dermatan sulfate on rate of inhibition of chymotrypsin ([1]; dermatan sulfate): does not significantly increase; Second-order rate constant (k2) for inhibition of thrombin ([2]; listed as native HCII): 1050 M⁻¹ s⁻¹
B3 | – | – | – | – | – | – | – | – | Increase of the rate of thrombin inhibition by heparin and dermatan sulfate [5]: ~ 1000 fold
